23 molecules from patent publication US20150344570A1 (published 2015) can be followed below.

T1: FcγRIIb extracellular domain with C-terminal His tag (human, UniProt P31994 43-217)
T1 construct: extracellular domain; also called FcgRIIb; CD32B; not shown: His tag at the C terminus
T1 sequence (looked up): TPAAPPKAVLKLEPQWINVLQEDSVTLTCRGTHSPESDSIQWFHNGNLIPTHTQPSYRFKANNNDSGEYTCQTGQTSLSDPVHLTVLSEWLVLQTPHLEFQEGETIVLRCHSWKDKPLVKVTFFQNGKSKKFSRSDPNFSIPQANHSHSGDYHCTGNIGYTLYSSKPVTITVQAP

B1: GpH7-A5/GpH7-B3 variant G236_12R/GpL16-k0 (antibody, human IgG1, kappa)
heavy 1: not shown
heavy 2: not shown
light: DIVMTQSPLSLPVTPGEPASISCQASESLVHSNRNTYLHWYLQKPGQSPQLLIYKVSNRFSGVPDRFSGSGSGTDFTLKISRVEAEDVGVYYCSQNTHVPPTFGQGTKVEIERTVAAPSVFIFPPSDEQLKSGTASVVCLLNNFYPREAKVQWKVDNALQSGNSQESVTEQDSKDSTYSLSSTLTLSKADYEKHKVYACEVTHQGLSSPVTKSFNRGEC
notes: Heterodimerized anti-glypican-3 IgG1; mutation only in the GpH7-B3 H chain; also called He Ab
B2: GpH7-A5/GpH7-B3 variant P238_02A/GpL16-k0 (antibody, human IgG1, kappa)
heavy 1: not shown
heavy 2: not shown
light: B1 light
notes: as for B1
B3: GpH7-A5/GpH7-B3 variant P238_01G/GpL16-k0 (antibody, human IgG1, kappa)
heavy 1: not shown
heavy 2: not shown
light: B1 light
notes: as for B1
B4: GpH7-A5/GpH7-B3 variant S239_11K/GpL16-k0 (antibody, human IgG1, kappa)
heavy 1: not shown
heavy 2: not shown
light: B1 light
notes: as for B1
B5: GpH7-A5/GpH7-B3 variant S239_12R/GpL16-k0 (antibody, human IgG1, kappa)
heavy 1: not shown
heavy 2: not shown
light: B1 light
notes: as for B1
B6: GpH7-A5/GpH7-B3 variant G237_03V/GpL16-k0 (antibody, human IgG1, kappa)
heavy 1: not shown
heavy 2: not shown
light: B1 light
notes: as for B1
B7: GpH7-A5/GpH7-B3 variant P238_12R/GpL16-k0 (antibody, human IgG1, kappa)
heavy 1: not shown
heavy 2: not shown
light: B1 light
notes: as for B1
B8: GpH7-A5/GpH7-B3 variant G237_14T/GpL16-k0 (antibody, human IgG1, kappa)
heavy 1: not shown
heavy 2: not shown
light: B1 light
notes: as for B1
B9: GpH7-A5/GpH7-B3 variant G236_20W/GpL16-k0 (antibody, human IgG1, kappa)
heavy 1: not shown
heavy 2: not shown
light: B1 light
notes: Heterodimerized anti-glypican-3 IgG1; mutation only in the GpH7-B3 H chain; also called He Ab; GpH7-A5/GpH7-B3-03-20W/GpL16-k0
B10: GpH7-A5/GpH7-B3 variant G236_14T/GpL16-k0 (antibody, human IgG1, kappa)
heavy 1: not shown
heavy 2: not shown
light: B1 light
notes: as for B1
B11: GpH7-A5/GpH7-B3 variant S239_15Y/GpL16-k0 (antibody, human IgG1, kappa)
heavy 1: not shown
heavy 2: not shown
light: B1 light
notes: as for B1
B12: GpH7-A5/GpH7-B3 variant G237_05P/GpL16-k0 (antibody, human IgG1, kappa)
heavy 1: not shown
heavy 2: not shown
light: B1 light
notes: as for B1
B13: GpH7-A5/GpH7-B3 variant P238_11K/GpL16-k0 (antibody, human IgG1, kappa)
heavy 1: not shown
heavy 2: not shown
light: B1 light
notes: as for B1
B14: GpH7-A5/GpH7-B3 variant G236_15Y/GpL16-k0 (antibody, human IgG1, kappa)
heavy 1: not shown
heavy 2: not shown
light: B1 light
notes: as for B1
B15: GpH7-A5/GpH7-B3 variant S239_04F/GpL16-k0 (antibody, human IgG1, kappa)
heavy 1: not shown
heavy 2: not shown
light: B1 light
notes: as for B1
B16: GpH7-A5/GpH7-B3 variant G237_16H/GpL16-k0 (antibody, human IgG1, kappa)
heavy 1: not shown
heavy 2: not shown
light: B1 light
notes: as for B1
B17: GpH7-A5/GpH7-B3 variant G236_19Q/GpL16-k0 (antibody, human IgG1, kappa)
heavy 1: not shown
heavy 2: not shown
light: B1 light
notes: as for B1
B18: GpH7-A5/GpH7-B3 variant S239_16H/GpL16-k0 (antibody, human IgG1, kappa)
heavy 1: not shown
heavy 2: not shown
light: B1 light
notes: as for B1
B19: GpH7-A5/GpH7-B3 variant P238_14T/GpL16-k0 (antibody, human IgG1, kappa)
heavy 1: not shown
heavy 2: not shown
light: B1 light
notes: as for B1
B20: GpH7-A5/GpH7-B3 variant P238_13S/GpL16-k0 (antibody, human IgG1, kappa)
heavy 1: not shown
heavy 2: not shown
light: B1 light
notes: as for B1
B21: GpH7-A5/GpH7-B3 variant G236_16H/GpL16-k0 (antibody, human IgG1, kappa)
heavy 1: not shown
heavy 2: not shown
light: B1 light
notes: as for B1
B22: GpH7-A5/GpH7-B3 variant P238_07I/GpL16-k0 (antibody, human IgG1, kappa)
heavy 1: not shown
heavy 2: not shown
light: B1 light
notes: as for B1
B23: GpH7-A5/GpH7-B3 variant P238_18N/GpL16-k0 (antibody, human IgG1, kappa)
heavy 1: not shown
heavy 2: not shown
light: B1 light
notes: as for B1

For the first experiment, the target named is T2, FcγRIa extracellular domain with C-terminal His tag (human, UniProt P12314 16-292).
T2 construct: extracellular domain; also called FcgRI; CD64; not shown: His tag at the C terminus
T2 sequence (P12314 16-292): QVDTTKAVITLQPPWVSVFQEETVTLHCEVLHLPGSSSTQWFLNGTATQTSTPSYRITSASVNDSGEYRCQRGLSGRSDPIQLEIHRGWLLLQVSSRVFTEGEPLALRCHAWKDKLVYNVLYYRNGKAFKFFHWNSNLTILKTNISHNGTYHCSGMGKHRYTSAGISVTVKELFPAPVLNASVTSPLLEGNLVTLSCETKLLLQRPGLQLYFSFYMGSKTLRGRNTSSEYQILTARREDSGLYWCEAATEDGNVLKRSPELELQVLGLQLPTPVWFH
As to the kind of experiment: SPR; He/Con_1a divided by He/Con_2b (FcγRIa against FcγRIIb). A general note: Surface plasmon resonance follows binding to a sensor surface in real time, without labels.
As for B1, the “He_1a/2b (Ia/IIb)” value worked out at 9.3 ratio.

For the molecule B2, the “He_1a/2b (Ia/IIb)” value was found to be 1.66 ratio.

With B3, the “He_1a/2b (Ia/IIb)” value worked out at 1.66 ratio.

Regarding B4, the “He_1a/2b (Ia/IIb)” value is 2.75 ratio.

For the molecule B5, the “He_1a/2b (Ia/IIb)” value was determined as 2.21 ratio.

For B6, the “He_1a/2b (Ia/IIb)” value worked out at 1.28 ratio.

For the molecule B7, the “He_1a/2b (Ia/IIb)” value was determined as 1.5 ratio.

Take B8: the “He_1a/2b (Ia/IIb)” value was 1.5 ratio.

As to B9, the “He_1a/2b (Ia/IIb)” value was determined as 1.81 ratio.

With B10, the “He_1a/2b (Ia/IIb)” value came to 1.59 ratio.

Consider B11, for which the “He_1a/2b (Ia/IIb)” value was determined as 2.57 ratio.

As to B12, the “He_1a/2b (Ia/IIb)” value is 1.81 ratio.

Take B13: the “He_1a/2b (Ia/IIb)” value worked out at 4.27 ratio.

Turning to B14, the “He_1a/2b (Ia/IIb)” value worked out at 2.34 ratio.

As for B15, the “He_1a/2b (Ia/IIb)” value worked out at 2.13 ratio.

For B16, the “He_1a/2b (Ia/IIb)” value was 1.32 ratio.

For the molecule B17, the “He_1a/2b (Ia/IIb)” value is 1.98 ratio.

As for B18, the “He_1a/2b (Ia/IIb)” value is 1.78 ratio.

For the molecule B19, the “He_1a/2b (Ia/IIb)” value is 1.8 ratio.

As to B20, the “He_1a/2b (Ia/IIb)” value was found to be 1.37 ratio.

Turning to B21, the “He_1a/2b (Ia/IIb)” value amounted to 2.99 ratio.

In the case of B22, the “He_1a/2b (Ia/IIb)” value came out at 1.24 ratio.

As to B23, the “He_1a/2b (Ia/IIb)” value was found to be 1.27 ratio.

The target in a further experiment is T2, FcγRIa extracellular domain with …. Nature of the experiment: SPR (Biacore), antibody captured, FcγR analyte; relative to GpH7-A5/GpH7-B3/GpL16-k0 = 100.
For the molecule B1, the He/Con_1a is 63.1 % of HeCon Ab.

As for B2, the He/Con_1a was 95.2 % of HeCon Ab.

As to B3, the He/Con_1a is 92.9 % of HeCon Ab.

As to B4, the He/Con_1a was 68 % of HeCon Ab.

B5: the He/Con_1a was 86.5 % of HeCon Ab.

For the molecule B6, the He/Con_1a is 78.5 % of HeCon Ab.

For B7, the He/Con_1a is 77.3 % of HeCon Ab.

Take B8: the He/Con_1a is 82.3 % of HeCon Ab.

Regarding B9, the He/Con_1a was 105 % of HeCon Ab.

Consider B10, for which the He/Con_1a is 92.2 % of HeCon Ab.

For the molecule B11, the He/Con_1a was 89.8 % of HeCon Ab.

On to B12, for which the He/Con_1a is 44.5 % of HeCon Ab.

As to B13, the He/Con_1a was 77.4 % of HeCon Ab.

Take B14: the He/Con_1a was 92.5 % of HeCon Ab.

Regarding B15, the He/Con_1a was 93.8 % of HeCon Ab.

For the molecule B16, the He/Con_1a was 72.6 % of HeCon Ab.

B17: the He/Con_1a was 92.1 % of HeCon Ab.

As to B18, the He/Con_1a was 88.1 % of HeCon Ab.

On to B19, for which the He/Con_1a was 91.1 % of HeCon Ab.

With B20, the He/Con_1a is 96.6 % of HeCon Ab.

Consider B21, for which the He/Con_1a is 83.5 % of HeCon Ab.

B22: the He/Con_1a was 99.1 % of HeCon Ab.

In the case of B23, the He/Con_1a was 93.3 % of HeCon Ab.

Another experiment deals with T1, FcγRIIb extracellular domain with …. The experiment is described as above.
On to B1, for which the He/Con_2b is 6.8 % of HeCon Ab.

B2: the He/Con_2b is 57.4 % of HeCon Ab.

Consider B3, for which the He/Con_2b was 56 % of HeCon Ab.

In the case of B4, the He/Con_2b was 24.7 % of HeCon Ab.

Consider B5, for which the He/Con_2b is 39.1 % of HeCon Ab.

Regarding B6, the He/Con_2b is 61.4 % of HeCon Ab.

B7: the He/Con_2b was 51.4 % of HeCon Ab.

As for B8, the He/Con_2b was 54.8 % of HeCon Ab.

Take B9: the He/Con_2b is 58.2 % of HeCon Ab.

As to B10, the He/Con_2b is 57.8 % of HeCon Ab.

With B11, the He/Con_2b was 34.9 % of HeCon Ab.

As to B12, the He/Con_2b is 24.6 % of HeCon Ab.

On to B13, for which the He/Con_2b is 18.1 % of HeCon Ab.

As for B14, the He/Con_2b was 39.5 % of HeCon Ab.

Take B15: the He/Con_2b is 44.1 % of HeCon Ab.

In the case of B16, the He/Con_2b is 55.2 % of HeCon Ab.

For the molecule B17, the He/Con_2b was 46.6 % of HeCon Ab.

Take B18: the He/Con_2b is 49.4 % of HeCon Ab.

Regarding B19, the He/Con_2b is 50.7 % of HeCon Ab.

For the molecule B20, the He/Con_2b was 70.4 % of HeCon Ab.

With B21, the He/Con_2b is 27.9 % of HeCon Ab.

For the molecule B22, the He/Con_2b is 80 % of HeCon Ab.

As to B23, the He/Con_2b is 73.2 % of HeCon Ab.
